Assay results reported in the supplement of paper PMC12764529.
± gives the half width of the 95% confidence interval.

Experiment: folding stability dG unfold (combined trypsin and chymotrypsin); higher = more stable
How it was run: (§1)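 Bayesian fitting of sequencing counts gave K50 for each design. Unfolding free energy followed by setting this against a sequence-predicted unfolded-state K50 and a shared folded-state K50, either per protease or with trypsin and chymotrypsin combined. The designs, under 80 residues and lacking cysteine, were digested in a PA-tagged cDNA display format at 11 threefold-diluted protease concentrations and without protease, and only those with AlphaFold2 dimer inter-PAE above 15 were kept.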

Row | Sequence | folding stability dG unfold
1 | SAMTIVIRLPPPPPPLTAEELAELLGAEVTEIRVERNEDGELVVTITVREDMSEEQRRRLLELLRERAESAG [r14_421_TrROS_Hall] | 4.02 ± 0.075 kcal/mol
2 | SAGGSAKVKIIVTYNDGKKEEIIFDIPENYEISEVEKIAKKIAKNIAKKKNLPNVNIKVEKIEPLESAGGSA [r15_463_TrMRF] | 3.09 ± 0.074 kcal/mol
3 | SAGGSAGGSGSMPVTIEIEYKDPKSDKTFKKTILVPPSVTDPEAVAEEVAKELGPVEKVKITSSAGGSAGGS [r12_942_JUSTAS] | 0.0443 ± 0.48 kcal/mol
4 | SAGGSAGGSAGGSAKSPNGDELPPGQPVEEHTIRPPVKPTITIKMYADPDAGKMKFELFSAGGSAGGSAGGS [r4_13_TrROS] | 0.533 ± 0.6 kcal/mol
5 | SAGMKETLKVKIKVKLSEEQREKLKKALEELGATVEVDEETGEVTVEVSAEQVEALKKIPGVEEIEVESAGG [r19_212_TrROS_Hall] | 2.76 ± 0.14 kcal/mol
6 | SAGGSAGGSAKPDKPIKVKVTLYNPATGEKTVVEVEVPPHVKPEEVAEALRKEFGAARVEVESAGGSAGGSA [r18_58_TrMRF] | 3.08 ± 0.057 kcal/mol
7 | SAFRDLAKEIARDAGYPVELVEIEFTNDTWTFMIQMKNDGEPYYFRIEIEWPNPNPGDWRIEIDDVQPPSAG [r14_387_TrROS] | 2.78 ± 0.28 kcal/mol
8 | SAGGKKIVIVAPPGMSPEELAELLKKLFPGLEVEVREVSAEELKKLKPGDEVLVIEVDGRLYAVKIKPSAGG [r13_649_TrROS_Hall] | 3.21 ± 0.12 kcal/mol
9 | SAGGSAGGSAGGKKKIKVKVTVYNKNGKPVAEFEFEFETEEEALEAAKKLGLPVRVEKESAGGSAGGSAGGS [r10_958_TrROS_Hall] | 2.28 ± 0.15 kcal/mol
10 | SAGGKIEELAKEIAQEHNIKSVDVQTTGGYPKVNVRFRNPKEGRMYRIKIHVPPDGNIKISIEPQELSAGGS [r16_433_TrROS] | 1.92 ± 0.26 kcal/mol
11 | SPFRLKIEIDEVGPAGQEIRVKLEIWSDNKPIEMEHTIKVPNGRLYRIRMNIYMPPDGNFQLNLDVYPLDSA [r9_255_TrROS] | > 6 kcal/mol
12 | SAGMKKKLYSGEIKEIEEALEKGLSLEEIEEIFSKGANGSLELEEENKKIYIFALEDKKAFLLVEYNPESAG [r5_343_TrMRF] | 1.1 ± 0.26 kcal/mol
13 | SAGGSAGGSAGKIKIVKDEKTGEYKLVVYDKNGKKVKTITLSKEELEKNPELLKKLLEELSAGGSAGGSAGG [r17_496_TrROS_Hall] | 4.51 ± 0.17 kcal/mol
14 | SAGGSAGGSALDPSAPYVVLIDIDIEPEKAEVEKIPGIPKYIVKKIDLKITIKIEIVSAKDASAGGSAGGSA [r18_137_TrMRF] | 2.84 ± 0.08 kcal/mol
15 | SAKTIPINIWGPLGDMDRMAEEIARMIARKLGLPANLKKIKIKFTEIEPWPDPDGKPRWVRMSIEIKVKSAG [r14_736_TrROS] | 3.45 ± 0.19 kcal/mol
16 | SAGMDMEEAEKLAEEIAEQLAKELEKKTGIKPEKIKIEVTVTKLPDGSYLITIKATLEDKEVEKTYTIASAG [r14_226_JUSTAS] | 2.68 ± 0.12 kcal/mol
17 | SAGEIKIKVEEVDPEKPYVRVTIEIKLEPGQSIEEALKKLLKPGVEEAKIVKVEEENGYLKIEILVRRKSAG [r5_227_TrROS_Hall] | 4.01 ± 0.27 kcal/mol
18 | SAGGSAGGPFKIKITEIFLIPFEPGEMIMIEIRFPNGKVYYIMLQVNPGNGWIWIAIMEIKPPDSAGGSAGG [r6_337_TrROS] | 4.74 ± 0.33 kcal/mol
19 | SAGGPPEGEKKKFRIDDVQPMPNPNGYFMVQIRYNDKPVSSIPIPPNNLDKLANDLPPGMEVEIYPFSAGGS [r8_41_TrROS] | 0.369 ± 0.21 kcal/mol
20 | SAGGSAGGSAPPGQEFPFEPVEEESIPIYDPDNGEPPLTISVWKMRMPGGPPMTFIMISPMSAGGSAGGSAG [r3_166_TrROS] | 2.17 ± 0.069 kcal/mol
21 | SAGGSAMRIKDVNPDNGYFRIEPPDNGKPIYELNVEAMKKAQENGDIPPWVRELLNHEPGYRIEPVSAGGSA [r15_359_TrROS] | -0.327 ± 0.15 kcal/mol

Row | Sequence | folding stability dG unfold
22 | SAGGATAVIADFPLPEGTLRVAVVKKDDKPYVFVFPSGISAEELKKILEEKLGVDIKKVEVKTVSTADESAG [r5_181_TrMRF] | 1.7 ± 0.093 kcal/mol
23 | SAGGSAGGSAGGIDFPEKGFVVVVTFPDGSKAEFEVPSDRPLVLNETAGDVTVDEIREKDSAGGSAGGSAGG [r7_542_TrMRF] | 0.458 ± 0.13 kcal/mol
24 | SAGGSAGGSAMTITKTITFSSKEEAEKFVKELEEKGNITITMTYEKLPSGKYKVTVTITKPSAGGSAGGSAG [r3_273_JUSTAS] | 3.68 ± 0.2 kcal/mol
25 | SAGMIKITIITENGEEITIEIPENMSEEELKELAEKIAKEIAKKLNIPKVKIKKIKIEKIELTPEQIKKSAG [r5_377_TrROS_Hall] | 1.89 ± 0.36 kcal/mol
26 | SAGGSAGGAIGTIDYNGKPLRLSVYLPDNPRVFEYPVDGDPLVFAAELNRETGFDVTDVVVVGGSAGGSAGG [r6_762_TrMRF] | 0.132 ± 0.14 kcal/mol
27 | SASMIIDPVSSEEEIEKLVKEAIEAGIGGEGLIVLRSDGKVYRITIEPGTGKVKKEEVMSPEELAAKLGSAG [r14_913_JUSTAS] | 2.12 ± 0.16 kcal/mol
28 | SAGGSSVRISFPNGYTVEITVTEDSATITLRSPTSTETVEFPSSVQVTITGPLNQPVTFDIPSSSESAGGSA [r2_57_TrMRF] | 2.8 ± 0.057 kcal/mol
29 | SAGGSAGGSAGPPDIEVNYYRYEGYYRVNISFPNNRPIEIMMKGPGMPAEDFVKKLLDQLSAGGSAGGSAGG [r11_313_TrROS] | 2.1 ± 0.14 kcal/mol
30 | SAGMVVVEIRTRDGRTLTVEVEAESEEEAERLARELAEELRRKFPDLEIRVERVEPPEPPEEVVEEEEESAG [r5_950_TrROS_Hall] | 3.42 ± 0.21 kcal/mol
31 | SAGGTSYLVRLELYETSTGEPLELELPFPNLPAEEVEELAKELAKALAEPTGNDLKARVEVVPLPDESAGGS [r8_185_TrMRF] | 0.53 ± 0.052 kcal/mol
32 | SAGGSAGGSDTVNVKVTVSFPPGTETKEITVNVPVVPGNPDVVKAKVDELAAAFPDAVVTAEKSAGGSAGGS [r12_795_TrMRF] | 1.6 ± 0.12 kcal/mol
33 | SMEEELPPKVTEVVVKVPLSPDASPEEIAAARALAAELAAALEAAGYRDVEVTVEPTEPGALVIRARVVVSA [r9_865_JUSTAS] | 3.908 ± 0.034 kcal/mol
34 | SAGWFVRIEIEPPGEKREIMIPFSWDEARELLKDLGLEVEVDPESPTFEFKLPNYQIKVEFMPIPPGQMSAG [r5_248_TrROS] | 3.21 ± 0.12 kcal/mol
35 | SAGGPRITITYPLPPGDIEKIEKLAKEALDNGDNVDVNIPHPNGWYVTLTVDPPNGKIEEVEWQPPDKSAGG [r13_873_TrROS] | 0.499 ± 0.12 kcal/mol
36 | SAPKIKEIKEFDPETKKILIKVETPEGEKEIPIPAGGNMTVEEAIEKVKEFLEKELPEGVELEVEEITISAG [r14_422_TrMRF] | 1 ± 0.17 kcal/mol
37 | SAGGSDEVTIDFQVKYNGQPFTVRITIERDPPDGKIEIPVEISYPNPEMREPAREIARNIVRELLNSAGGSA [r2_259_TrROS] | 1.32 ± 0.095 kcal/mol
38 | SAGGGGSTTQPQQVELPGDRTATVTLHTHGDTPTATITLSEKESELGTVTVPVASTAEVAAAVAALASAGGS [r16_55_JUSTAS] | 0.973 ± 0.097 kcal/mol
39 | SAGGSAGGSAIKEIVKRIEKLFGVDVEPEQEEREVNGGRYPTLPVTVKVPPNANSPALKEASAGGSAGGSAG [r3_427_TrROS] | 0.021 ± 0.24 kcal/mol
40 | SAGGSKTIVIDPEKVVKVEVKKNENGEKEIRIVVKNKDGEEKEVTIKPGEKLELPPKVEVVVLPEKSAGGSA [r2_347_TrROS_Hall] | 0.965 ± 0.19 kcal/mol
41 | SAETVVIPIEAPEDEILAAIKALIDANPDVKITITYADGEKKEITLPDGTKITIERLPDGTLLITVEKVSAG [r14_807_TrROS_Hall] | 2.49 ± 0.17 kcal/mol
42 | SAGGSAGGSAPVPINITFPDGSVAVNGSPDVAYLYFPEKGTIYRIPIDPDTNIITIEEVFKVPSAGGSAGGS [r12_539_TrMRF] | 0.964 ± 0.05 kcal/mol

Experiment: folding stability dG unfold from trypsin proteolysis; higher = more stable
How it was run: as §1

Row | Sequence | folding stability dG unfold
43 | SAMTIVIRLPPPPPPLTAEELAELLGAEVTEIRVERNEDGELVVTITVREDMSEEQRRRLLELLRERAESAG [r14_421_TrROS_Hall] | 4.32 ± 0.07 kcal/mol
44 | SAGGSAKVKIIVTYNDGKKEEIIFDIPENYEISEVEKIAKKIAKNIAKKKNLPNVNIKVEKIEPLESAGGSA [r15_463_TrMRF] | 2.41 ± 0.047 kcal/mol
45 | SAGGSAGGSGSMPVTIEIEYKDPKSDKTFKKTILVPPSVTDPEAVAEEVAKELGPVEKVKITSSAGGSAGGS [r12_942_JUSTAS] | 0.595 ± 0.061 kcal/mol
46 | SAGGSAGGSAGGSAKSPNGDELPPGQPVEEHTIRPPVKPTITIKMYADPDAGKMKFELFSAGGSAGGSAGGS [r4_13_TrROS] | 0.225 ± 0.24 kcal/mol
47 | SAGMKETLKVKIKVKLSEEQREKLKKALEELGATVEVDEETGEVTVEVSAEQVEALKKIPGVEEIEVESAGG [r19_212_TrROS_Hall] | 3.22 ± 0.18 kcal/mol
48 | SAGGSAGGSAKPDKPIKVKVTLYNPATGEKTVVEVEVPPHVKPEEVAEALRKEFGAARVEVESAGGSAGGSA [r18_58_TrMRF] | 3.05 ± 0.086 kcal/mol
49 | SAFRDLAKEIARDAGYPVELVEIEFTNDTWTFMIQMKNDGEPYYFRIEIEWPNPNPGDWRIEIDDVQPPSAG [r14_387_TrROS] | 1.94 ± 0.14 kcal/mol
50 | SAGGKKIVIVAPPGMSPEELAELLKKLFPGLEVEVREVSAEELKKLKPGDEVLVIEVDGRLYAVKIKPSAGG [r13_649_TrROS_Hall] | 2.05 ± 0.11 kcal/mol
51 | SAGGSAGGSAGGKKKIKVKVTVYNKNGKPVAEFEFEFETEEEALEAAKKLGLPVRVEKESAGGSAGGSAGGS [r10_958_TrROS_Hall] | 1.71 ± 0.11 kcal/mol
52 | SAGGKIEELAKEIAQEHNIKSVDVQTTGGYPKVNVRFRNPKEGRMYRIKIHVPPDGNIKISIEPQELSAGGS [r16_433_TrROS] | 1.87 ± 0.034 kcal/mol
53 | SPFRLKIEIDEVGPAGQEIRVKLEIWSDNKPIEMEHTIKVPNGRLYRIRMNIYMPPDGNFQLNLDVYPLDSA [r9_255_TrROS] | 4.29 ± 0.23 kcal/mol
54 | SAGMKKKLYSGEIKEIEEALEKGLSLEEIEEIFSKGANGSLELEEENKKIYIFALEDKKAFLLVEYNPESAG [r5_343_TrMRF] | 0.441 ± 0.14 kcal/mol
55 | SAGGSAGGSAGKIKIVKDEKTGEYKLVVYDKNGKKVKTITLSKEELEKNPELLKKLLEELSAGGSAGGSAGG [r17_496_TrROS_Hall] | 3.52 ± 0.27 kcal/mol
56 | SAGGSAGGSALDPSAPYVVLIDIDIEPEKAEVEKIPGIPKYIVKKIDLKITIKIEIVSAKDASAGGSAGGSA [r18_137_TrMRF] | 2.28 ± 0.17 kcal/mol
57 | SAKTIPINIWGPLGDMDRMAEEIARMIARKLGLPANLKKIKIKFTEIEPWPDPDGKPRWVRMSIEIKVKSAG [r14_736_TrROS] | 3.55 ± 0.06 kcal/mol
58 | SAGMDMEEAEKLAEEIAEQLAKELEKKTGIKPEKIKIEVTVTKLPDGSYLITIKATLEDKEVEKTYTIASAG [r14_226_JUSTAS] | 3.11 ± 0.21 kcal/mol
59 | SAGEIKIKVEEVDPEKPYVRVTIEIKLEPGQSIEEALKKLLKPGVEEAKIVKVEEENGYLKIEILVRRKSAG [r5_227_TrROS_Hall] | 3.22 ± 0.14 kcal/mol
60 | SAGGSAGGPFKIKITEIFLIPFEPGEMIMIEIRFPNGKVYYIMLQVNPGNGWIWIAIMEIKPPDSAGGSAGG [r6_337_TrROS] | 3.91 ± 0.35 kcal/mol
61 | SAGGPPEGEKKKFRIDDVQPMPNPNGYFMVQIRYNDKPVSSIPIPPNNLDKLANDLPPGMEVEIYPFSAGGS [r8_41_TrROS] | 0.06 ± 0.11 kcal/mol
62 | SAGGSAGGSAPPGQEFPFEPVEEESIPIYDPDNGEPPLTISVWKMRMPGGPPMTFIMISPMSAGGSAGGSAG [r3_166_TrROS] | 1.92 ± 0.034 kcal/mol
63 | SAGGSAMRIKDVNPDNGYFRIEPPDNGKPIYELNVEAMKKAQENGDIPPWVRELLNHEPGYRIEPVSAGGSA [r15_359_TrROS] | -0.979 ± 0.49 kcal/mol
